A protein production outcome set (Wang et al. 2014)

Assay: label from the status in PepcDB records

Sequence | protein production
QVPILHRDADFLLRALQPDDFVRTSRYENANREHLAPWEPLRDPGYFSVDNARARTLLQVASMDEGEALLLLLLDPDDGEVLGRCSYTNIVRGVFQACHLGFSLAAAAQGRGLMARALRVANRYCFEQLGLHRIMASHLPRNARSERLLESLGFEKEGYARAYLKIAGVWEDHVLRALVDAPR | not failed
RAAASPITITVGDRALELSVLRPAAPKGVVVFSHGAGGTAEAYATLLEGWRQAGFLVVAPLHVDSQKHPRKTAYNLRSSFPLRIADVGAAAGWAAAAAPGLPLAYAGHSYGSLMSLMRGGALEGMIPARDPNAKAVLCFSSPGTIQGLMGPATFQTLTTPTMVLTGELDLVPGMVADWRDHLRAVEESPAGEKYAWIGKSVDHGLAHHPDNPAFAEASALSVTFLKAQLLGD | failed
RAQTFEAVTPEYSRYAGQAFGSFQAMLSDLPDELGETIPNFHNMEFRLGQLHDALKTDPVGRAEEVRYYIDEIEKRAEEMCKAERLHREGKLPKRVCHCDTKVNNMLFDEDGHVLCVIDLDTVMPNFIFSDYGDFLRTGANTGEEDDKDLDHVNFDMEIFKAFTEGYLKGASSFLTDVEIENLPYAAALFPYMQCVRFLTDYINGDTYYKIKYPEHNLVRTRAQFRLLQSVEDCMPQMQAFIDQCLRY | not failed
RDRPAGLLRINATLGFGRTHLAPAIARFRRIHPAVEVQLLLTDAPLNLVEEGIDLGIRFGAPPFGRMVMRLLQRNRRFLCAAPSYLEARGVPQSLTDLQQHSCIVLRQDHDAYDVW | failed
RDSLFICAVATTETSRIPGITGAGASPELTEYTPAADVELIVHDAPRCLPEIPQTIVEGEAAPTPAVITKAALELAEVPFMVADAGASVKPDVPYININSEPGGDIRTGRAVTEPQRIYERGLMVGRTLSSLTEHLVVGESTPAGTTTALGVLTALGYDADFRVSASMPHNPHDLKREVVMAGLSNAGIEKGDCSREPFRAVEAVGDPMIPAVAGICMGSTVPVTLAGGTQMTAVCALMRAIDPDFDFSDTAIATTIFVAEDSTSDINRIAEQIGDIDIYVVDPDFGSASHRGLHEYLNGSVKEGVGAGGAMLLALLH | failed
RDTSVVVEHTSANPTGPVHVGRARNPIIGDAVARVLDYAGYDVDRHYYVNDAGRQIAVFTWAYETFDEDDLPEPERESPEYEMVRYYRKGNTILEDGDPDEVEAAEAEVQSILQGLEDGDEETYERVAEVVDTVLGGMQNTLGRLPAEFDEFVKETKFMRNGDTDDLVDRLKGLDCAVYEEDAWQLDLPDFEKNLVFLRSDGTSLYTTRDLAHHEWKFDTYDRAVTVLGEDHKLQADQLAAALELLDNDTDQLRQVFYSWVNLPEGGMSTREGTGIDLDDLLDEAIDRAREEVESRLDDRTRGDLDEDDIDRIARQVGIGAVRYDIVSKQPTKGITFEWDRALDFEAQSAPYVQYV | failed
REMGCAVTVADSNSAQLDKLAQQTGCQTISPADVVSDGFQDYTVVVTSPGWRPDSPLLVAAQSAGLEVIGDVELVYRLDRAEVFGPKRTWMVVTGTNGKTTTTAMLAEIMQHSGARAAAVGNIGVSVADAVRTQPRIDVLVAELSSFQL | failed
RESVEKQKKLEAILVSMDSGVIAVDRKHKIIMINPYAEKIFGIDKNIIGQSLMDCIRNYEFEDIFNKRAEGYAEIKTSWPKERNLRIKTADIINGYECIGTVAVVQDIT | failed
RFGLPVNGALDQYSARAANILAGNLDNHPLLEITALDFRMKANSDVLIAVTGAPLTLTVGGRPCSQWEPVSVRAGESVSIRGIHRGLRAYLAIHGSIEAGTLLGSAAPDTVVGFGLQLQEGTTLLSRRSVSPVRQPYFDLPLFRLGLERPSMGSDLSVDVTDGPDVAEFGESGELLFTSEYVVSGRSNHIGLRLGGELPERTSSDEVLSRGVPVGAVEVPSREELLVLHRGRGVTAGYPVLAVVTSTGLDVLAQARPGDKVRFRKTTVAEATAAHRRSRAQ | failed
RFKQNADHIVLTHVFNGGSAESAALCPQDKIIALDGYACTDFAAQWARYHVRAKINIHFFRAGILRQTVLTVQATAADTAI | failed
RGRGGTGGARRLSCGARRRAARGTSPGRRLSTAWSQPQPPPEEYAGADDVSQSPVAEEPSWVPSPRPPVPHESPEPPSGRSLVQRDIQAFLNQCGASPGEARHWLTQFQTCHHSADKPFAVIEVDEEVLKCQQGVSSLAFALAFLQRMDMKPLVVLGLPAPTAPSGCLSFWEAKAQLAKSCKVLVDALRHNAAAAVPFFGGGSVLRAAEPAPHASYGGIVSVETDLLQWCLESGSIPILCPIGETAARRSVLLDSLEVTASLAKALRPTKIIFLNNTGGLRDSSHKVLSNVNLPADLDLVCNAEWVSTKERQQMRLIVDVLSRLPHHSSAVITAASTLLTELFSNKGSGTLFKNAERMLRVRSLDKLDQGRLVDLVNASFGKKLRDDYLASLRPRLHSIYVSEGYNAAAILTMEPVLGGTPYLDKFVVSSSRQGQGSGQMLWECLRRDLQTLFWRSRVTNPINPWYFKHSDGSFSNKQWIFFWFGLADIRDSYELVNHAKGLPDSFHKPASDPGS | failed
RGSRFTWRKECLAVMESYFNENQYPDEAKREEIANACNAVIQKPGKKLSDLERVTSLKVYNWFANRRKEIKRRANIAAILES | not failed
RKEMTAACTPRRRIINLTSVLSLQEEINEQGHEVLREMLHNHSFVGCVNPQWALAQHQTKLYLLNTTKLSEELFYQILIYDFANFGVLRLSEPAPLFDLAMLALDSPESGWTEEDGPKEGLAEYIVEFLKKKAEMLADYFSLEIDEEGNLIGLPLLIDNYVPPLEGLPIFILRLATEVNWDEEKECFESLSKECAMFYSIRKQYISEESTLSGQQSEVPGSIPNSWKWTVEHIVYKALRSHILPPKHFTEDGNILQLANLPDLYKVFERC | failed
RKKPVSQSLEFPTRYSPYRPYRCVHQGCFAAFTIQQNLILHYQAVHKSDLPAFSAEVEEE | not failed
RNPLFTCVISSIETTLSIPISGVHRDVIKYTPSADVELVFYGKSLTLKTPPIDATGSPTPATITRACVELKNIKNLHIDAGAFVKPKIPFIEIDEKPTGRIEEGKAMNNSKELYMKGYLLGKNLDAELLIVGESVPGGTTTALGVLLGLGYDAEGKVSSGSINNPHELKIKVVREGLKKAGINEKSSVFDVLNAVGDKMMPVVAGLAISFAERNKPVILAGGTQMSAVLAVIKEINKKVLDKNLIAIGTTEFVLNDKKGDLKGIVEQIGNVPVLASKFYFEKAKIEGLKNYCKGSVKEGVGAGGIAVYSIVNDL | failed
RNVWVVAELDEQGVSEASLQMLTPARRIADKLGESVVGVIAGPPGSSQLAVEMVERGADEVIVVEHERLSEYYPDVVGSVIVELSLKYKPSVILFAATARGREMAPYVANTLKTGITADCTDFDVDPKTRDVLLIRPPFSAIMLAYIRTPFRRPQIGTARPNVFPLPERQPGRQGRIVREEVEPPEPMARLVNRVRIPRSEVP | failed
RPAIRKRLLKPKVLDSSPRALVGHRAEVLEDVGATSGQVRLDGSIWSARSMDPTHTFAEGEIVSVIDIQGTTAIVWKEA | not failed

Sequence | protein production
RPHVVKVYSEDGACRSVEVAAGATARHVCEMLVQRAHALSDETWGLVECHPHLALERGLEDHESVVEVQAAWPVGGDSRFVFRKNFA | not failed
RPQTTDNWQNTEIEGIDIMLAVDVSTSMLAEDLKPNRLEAAKQVASEFINGRPNDNIGLTIFAGESFTQCPLTVDHGVLLNLFNSIKGDIAQRGLIEDGTAIGMGIANAVTRLKDSKAKSKVIILLTDGSNNRGDISPLTAAEIAKQFGIRIYTIGVGTNGTAPYPMQTYAGTQYVNVPVEIDEKTLTEIAGTTNGNYFRATSNSKLKEVYQEIDKLEKTKL | failed
RQLSRHTYAVRALTDIDDFNAQFNTDFDDEEVDTIGGLIMQTFGYLPKRGEEIILKNLQFKVTSADSRRLIQLRVTVPDEHLAEMNNVDEKSE | failed
RQVQKELGDVLVRLHNPVVLTPTTVQVTWTVDRQPQFIQGYRVMYRQTSGLQATSSWQNLDAKVPTERSAVLVNLKKGVTYEIKVRPYFNEFQGMDSESKTVRTTEE | not failed
RRHYIDAFGTGPGFAAVASFYPGCFRIKPPGGRDYDLVGPDIAQPLLLLMGDADTETPAAECVDKLTPLKAAGAPVEWHVYPSTTHCWDCQQLDGRSKTDVRGNHVAYRYQPDVVADSERRLFAFLER | failed
RSAEALFEKAVTPSDVGKLNRLVIPKHHAEKHFPLPSSNVSVKGVLLNFEDVNGKVWRFRYSYWNSSQSYVLTKGWSRFVKEKNLRAGDVVSFSRSNGQDQQLYIGWKSRSGSDLDA | not failed
RSLQLDKLVNEMTQHYENSVPEDLTVHVGDIVAAPLPTNGSWYRARVLGTLENGNLDLYFVDFGDNGDCPLKDLRALRSDFLSLPFQAIECSLARIA | not failed
RSMEDVRLHRKEKGDAYSFNWSLKIEADFQLPFDPTHTSMEGLNLNLDQEPQVLAANLRKAFSGIVAGNVKAEGIREIECKGPFSIHGDPVLMKKLDKLLQDFVEQHRMKLPGGSDYEPCYRIAHP | failed
RTRALYDLGRELASALTASQIIETAVGRLEPLFRAKVMLFIPNSEDRLRAATETGNDADAGVAQWVFDNQQPAGLGTNTLPSNAALYVPLKAPMRVRGVIALLPEDAVHPFLPEQQRLLETCAAQIALALERVHYVEVAQDAIV | failed
RTVAQNASETTVSYDTDTAVLSEADVLRIALSENATVKVADMDVRKQEYARRAARADLFPKVDLNGVYSHTLKKQVLYIDMPGFSSSEGIEMGRTHNTQGGVNVSMPLVSAQLWKSIAMTGEQLDLALEKARSSRIDLVAEVKKAYLSVLLAEDSYGVFKRSYDNALANYKNISDKFDRGLVAEYDKIRANVQVRNIEPNLLQAQNSVALALWQLKVLMSMEVETPIRLSGSLSDYKEQVYTGYFAADTLISNNSSLRQLDIQRRLAVSADKLNKYSFLPTLNLGGQYTYSLNSNDIKFWGEGQR | not failed
RVKESITRTSRAPSVATVGSICDLNLKIPEINSSDMSAHVTSPSGRVTEAEIVPMGKNSHCVRFVPQEMGVHTVSVKYRGQHVTGSPFQFTVGPLGEGG | not failed
RYPTNNFGNCTGCSATFSVLKKRRSCSNCGNSFCSRCCSFKVPKSSMGATAPEAQRETVFVCASCNQTLSK | not failed
SAAVGAEARGAWCVPCLVSLDTLQELCRKEKLTCKSIGITKRNLNNYEVEYLCDYKVVKDMEYYLVKWKGWPDSTNTWEPLQNLKCPLLLQQFSNDKHNYLSQVITSEEAERRGQFYDNKGITYLFDLDYESDEFTVDAARYGNVSHFVNHSCDPNLQVFNVFIDNLDTRLPRIALFSTRTINAGEELTFDYQMKGSGDISSDSIDHSPAKKRVRTVCKCGAVTCRGYLN | failed
SADEAPSSADEAPSSAVEQIVAPVDFSDLTEVALRHVAQIAPLYDVPVTLVHVVEDPTMPSVYEVNASAVRARAAEQRAEEALQSLGAPIEETGVSVSYLVHRGQTTSTVVEATGHRDTLTVMGTKGLSGLRRVMLGSVTEAVIRASDGPVLAVPASAQEASPANE | failed
SADSEADKPLRKISAAFKKLAIIVNSPNPEVPVTQFSHACSLVSPLFGCLGIAFKFAEMDYVAKVDDLVRASSSISTLVVMMDKDIEADCVRKAGSHTRNLLRVKRGLDMVKVLFEQIIASEGDNSLKDPATKSYAQVFAPHHGWAIRKAVSLGMYALPTRAHLLNMLKEDEAAAKIHMQSYVNSSAPLITYLDNLFLSKQLGIDW | failed
SAEASSANLGSGCEEKRHEGSSSESVPPGTTISRVKLLDTMVDTFLQKLVAAGSYQRFTDCYKCFYQLQPAMTQRIYDKFIAQLQTSIREEISDIKEEGNLEAVLNALDKIVEEGKVRKEPAWCEAQRCRVQQRCSLCVQAGGQRGSEETQALPVSMAGSPSPLPGSPGAQEGGV | failed
